Results published in patent US8748104.
Like-named read-outs stand apart in the source and are kept apart here.

Experiments:
skeletal Troponin I [1] = biological target: skeletal Troponin I (UniProt P48788); conditions: Luminex bead fluorescence assay, streptavidin-phycoerythrin detection; room temperature 1 h, PBS washes
skeletal Troponin I [2] = biological target: skeletal Troponin I (UniProt P48788); conditions: Luminex bead fluorescence assay, streptavidin-phycoerythrin detection; room temperature 1 h, PBS washes; remark: listed apart in the source

Chain of UniProt P48788 (P48788 2-182): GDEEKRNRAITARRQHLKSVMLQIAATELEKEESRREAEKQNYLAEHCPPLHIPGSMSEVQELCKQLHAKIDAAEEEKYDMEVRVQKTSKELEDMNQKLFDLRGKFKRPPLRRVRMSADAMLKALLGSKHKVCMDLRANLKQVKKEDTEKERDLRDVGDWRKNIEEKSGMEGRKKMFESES

Row | Sequence | Kd (skeletal Troponin I [1]) | Kd (skeletal Troponin I [2])
1 | GGGATGGGGTGGGTGGCCAGCGATT [SEQ ID NO: 1 aptamer] | 37.7 nM | 
2 | TTAGGGGTGGTGTGGTTGGCAATTC [SEQ ID NO: 2 aptamer] |  | 5 nM
